Assay results published in the supplement of paper PMC7877785.
± gives the uncertainty stated by the source.

Assay: self-splicing fitness, log relative to wild type (ln ratio); higher = more splicing; Tetrahymena group I intron in knt gene, E. coli kanamycin selection, DiMSum; sequences stand for … in CUCUCU…GGAGGGAAAAGUUAUCAGGCAUGCACCUGGUAGCUAGUCUUUAAACCAAUAGAUUGCAUCGGUUUAAAAGGCAAGACCGUCAAAUUGCGGGAAAGGGGUCAACAGCCGUUCAGUACCAAGUCUCAGGGGAAACUUUGAGAUGGCCUUGCAAAGGGUAUGGUAAUAAGCUGACGGACAUGGUCCUAACCACGCAGCCAAGUCCUAAGUCAACAGAUCUUCUGUUGAUAUGGAUGCAGUUCACAGACUAAAUGUCGGUCGGGGAAGAUGUAUUCUUCUCAUAAGAUAUAGUCGGACCUCUCCUUAAUGGGAGCUAGCGGAUGAAGUGAUGCAACACUGGAGCCGCUGGGAACUAAUUUGUAUGCGAAAGUAUAUUGAUUAGUUUUGGAGUACUCGUGGUCG
Summary of the method: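 Library with all eight P1ex-region intron nucleotides randomised, intron inside the knt kanamycin-resistance gene on pET-22b(+), in E. coli BL21(DE3). Cells grew overnight at 37°C or 30°C on LB agar with or without 25 μg/mL kanamycin (plus 100 μg/mL carbenicillin, 50 μM IPTG, 0.2% rhamnose), in six replicate transformations. Pooled colonies were amplicon-sequenced on Illumina HiSeq 2500. DiMSum fitness is the error-weighted combination of wild-type-normalised replicate fold changes, kanamycin versus none.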

| Sequence | self-splicing fitness (ln) (30 °C) | self-splicing fitness (ln) (37 °C) |
| --- | --- | --- |
| CUGAAGCAAUAUUACGGAAA | -3.46 ± 0.26 | -1.43 ± 0.31 |
| CUGAAGCAAUAUUACGGAGA | -3.62 ± 0.38 | -1.97 ± 0.32 |
| CUGAAGCAAUAUUACGGCAU | -2.91 ± 0.12 | -3.52 ± 0.31 |
| CUGAAGCAAUAUUACGGCCA | -2.42 ± 0.17 | -2.69 ± 0.34 |
| CUGAAGCAAUAUUACGGUAA | -3.7 ± 0.24 | -1.27 ± 0.24 |
| CUGAAGCAAUAUUACGGUGA | -4.38 ± 0.31 | -2.6 ± 0.21 |
| CUGAAGCAAUAUUACGUCAA | -1.2 ± 0.065 | -0.435 ± 0.084 |
| CUGAAGCAAUAUUACGUUAC | -3.27 ± 0.35 | -2.39 ± 0.44 |
| CUGAAGCAAUAUUACGUUGA | -4.04 ± 0.18 | -2.66 ± 0.21 |
| CUGCAGCAAUAUUACGAAAU | -3.51 ± 0.37 | -1.62 ± 0.18 |
| CUGCAGCAAUAUUACGACAA | – | -0.88 ± 0.19 |
| CUGCAGCAAUAUUACGAGGA | -3.68 ± 0.22 | -2.39 ± 0.18 |
| CUGCAGCAAUAUUACGAGGC | -2.65 ± 0.17 | -1.97 ± 0.22 |
| CUGCAGCAAUAUUACGAUCG | -0.0275 ± 0.073 | 0.558 ± 0.1 |
| CUGCAGCAAUAUUACGAUUA | -3.35 ± 0.28 | -2.32 ± 0.16 |
| CUGCAGCAAUAUUACGCACU | -3.45 ± 0.2 | -0.783 ± 0.17 |
| CUGCAGCAAUAUUACGCAGG | -2.91 ± 0.17 | -2.15 ± 0.16 |
| CUGCAGCAAUAUUACGCUGU | -1.87 ± 0.12 | -2.8 ± 0.3 |
| CUGCAGCAAUAUUACGGCUG | -3.32 ± 0.3 | -1.52 ± 0.26 |
| CUGCAGCAAUAUUACGGGAA | -4.02 ± 0.29 | -2.53 ± 0.17 |
| CUGCAGCAAUAUUACGUACG | -0.548 ± 0.082 | 0.0422 ± 0.11 |
| CUGCAGCAAUAUUACGUAGA | -3.08 ± 0.15 | -3.35 ± 0.3 |
| CUGCAGCAAUAUUACGUAUA | -2.64 ± 0.17 | -2.16 ± 0.18 |
| CUGCAGCAAUAUUACGUUCA | -3.81 ± 0.2 | -1.97 ± 0.15 |
| CUGCAGCAAUAUUACGUUCC | – | -1.74 ± 0.35 |

| Sequence | self-splicing fitness (ln) (30 °C) | self-splicing fitness (ln) (37 °C) |
| --- | --- | --- |
| CUGGAGCAAUAUUACGAAGG | -3.43 ± 0.28 | -1.97 ± 0.27 |
| CUGGAGCAAUAUUACGAUUC | -2.02 ± 0.29 | – |
| CUGGAGCAAUAUUACGAUUG | -1.87 ± 0.12 | 0.00165 ± 0.13 |
| CUGGAGCAAUAUUACGCGUU | -3.89 ± 0.33 | -1.86 ± 0.27 |
| CUGGAGCAAUAUUACGGAGU | -2.37 ± 0.22 | – |
| CUGGAGCAAUAUUACGGAUA | -3.57 ± 0.48 | -1.35 ± 0.25 |
| CUGGAGCAAUAUUACGGCAC | -3.28 ± 0.32 | -2.35 ± 0.39 |
| CUGGAGCAAUAUUACGGGGG | -2.27 ± 0.26 | -1.89 ± 0.4 |
| CUGGAGCAAUAUUACGGGUG | -1.61 ± 0.079 | -0.251 ± 0.078 |
| CUGGAGCAAUAUUACGGUAA | -2.61 ± 0.28 | -2.89 ± 0.25 |
| CUGGAGCAAUAUUACGGUAU | -4.78 ± 0.41 | -2.49 ± 0.31 |
| CUGGAGCAAUAUUACGGUCA | -2.54 ± 0.47 | – |
| CUGGAGCAAUAUUACGGUUC | -2.68 ± 0.49 | – |
| CUGGAGCAAUAUUACGUCUC | -2.68 ± 0.33 | -1.16 ± 0.36 |
| CUGGAGCAAUAUUACGUGGU | -3.53 ± 0.22 | -2.4 ± 0.35 |
| CUGGAGCAAUAUUACGUUAG | -1.65 ± 0.068 | -1.51 ± 0.098 |
| CUGGAGCAAUAUUACGUUCU | -2.43 ± 0.26 | -1.68 ± 0.49 |
| CUGUAGCAAUAUUACGAAGU | -2.13 ± 0.23 | -1.82 ± 0.27 |
| CUGUAGCAAUAUUACGAAUG | -1.12 ± 0.081 | 0.429 ± 0.11 |
| CUGUAGCAAUAUUACGAGCA | – | -2.01 ± 0.31 |
| CUGUAGCAAUAUUACGAGGG | -3.5 ± 0.49 | -1.14 ± 0.34 |
| CUGUAGCAAUAUUACGAUGG | -2.74 ± 0.18 | -1.81 ± 0.19 |
| CUGUAGCAAUAUUACGAUGU | -5.35 ± 0.11 | -5.09 ± 0.16 |
| CUGUAGCAAUAUUACGCAGU | -2.29 ± 0.15 | -3.65 ± 0.33 |
| CUGUAGCAAUAUUACGCAUA | -2.83 ± 0.47 | -2.43 ± 0.41 |

| Sequence | self-splicing fitness (ln) (30 °C) | self-splicing fitness (ln) (37 °C) |
| --- | --- | --- |
| CUGUAGCAAUAUUACGCCGC | -2.54 ± 0.41 | -1.08 ± 0.47 |
| CUGUAGCAAUAUUACGGGGA | -2.67 ± 0.17 | -2.9 ± 0.24 |
| CUGUAGCAAUAUUACGGUAG | -2.9 ± 0.21 | -1.98 ± 0.25 |
| CUGUAGCAAUAUUACGUAAU | -3.88 ± 0.3 | -3.29 ± 0.37 |
| CUGUAGCAAUAUUACGUUAG | -2.72 ± 0.11 | -1.77 ± 0.11 |
| CUGUAGCAAUAUUACGUUCA | -3.47 ± 0.24 | -1.45 ± 0.15 |
| CUGUAGCAAUAUUACGUUUA | -3.7 ± 0.32 | -2.51 ± 0.16 |
| CUUAAGCAAUAUUACGAACU | – | -2.61 ± 0.38 |
| CUUAAGCAAUAUUACGAAUG | -0.541 ± 0.092 | -0.0976 ± 0.12 |
| CUUAAGCAAUAUUACGAAUU | -3.26 ± 0.22 | -0.957 ± 0.17 |
| CUUAAGCAAUAUUACGACCA | -3.3 ± 0.4 | -2.04 ± 0.4 |
| CUUAAGCAAUAUUACGACUG | 0.139 ± 0.087 | -0.589 ± 0.13 |
| CUUAAGCAAUAUUACGAGCC | – | -3.51 ± 0.48 |
| CUUAAGCAAUAUUACGAUAA | – | -3.18 ± 0.35 |
| CUUAAGCAAUAUUACGAUUC | -4.19 ± 0.46 | -2.07 ± 0.26 |
| CUUAAGCAAUAUUACGCCGU | -3.13 ± 0.34 | -1.88 ± 0.37 |
| CUUAAGCAAUAUUACGCGAA | -2.82 ± 0.24 | -2.82 ± 0.34 |
| CUUAAGCAAUAUUACGCGCU | -3.35 ± 0.22 | -2.5 ± 0.27 |
| CUUAAGCAAUAUUACGCGGU | -2.59 ± 0.14 | -2.35 ± 0.22 |
| CUUAAGCAAUAUUACGGAUC | -1.71 ± 0.23 | -2.11 ± 0.44 |
| CUUAAGCAAUAUUACGGCGG | -1.25 ± 0.095 | -0.194 ± 0.083 |
| CUUAAGCAAUAUUACGGGAA | -2.9 ± 0.3 | -2.85 ± 0.32 |
| CUUAAGCAAUAUUACGGGCU | -3.84 ± 0.23 | -2.98 ± 0.25 |
| CUUAAGCAAUAUUACGGGGA | -3.46 ± 0.29 | -2.16 ± 0.18 |
| CUUAAGCAAUAUUACGGGUC | -4.47 ± 0.34 | -2.98 ± 0.23 |

| Sequence | self-splicing fitness (ln) (30 °C) | self-splicing fitness (ln) (37 °C) |
| --- | --- | --- |
| CUUAAGCAAUAUUACGUAGG | -2.58 ± 0.1 | -1.35 ± 0.14 |
| CUUAAGCAAUAUUACGUCGG | -1.66 ± 0.097 | -0.424 ± 0.11 |
| CUUAAGCAAUAUUACGUGGG | -4.03 ± 0.17 | -2.26 ± 0.12 |
| CUUAAGCAAUAUUACGUUCU | -2.91 ± 0.19 | -2.14 ± 0.21 |
| CUUCAGCAAUAUUACGAAAC | -0.955 ± 0.5 | – |
| CUUCAGCAAUAUUACGAAGU | -2.31 ± 0.17 | -2.66 ± 0.38 |
| CUUCAGCAAUAUUACGAAUU | -2.66 ± 0.19 | -0.66 ± 0.13 |
| CUUCAGCAAUAUUACGACCG | 0.185 ± 0.083 | -0.454 ± 0.12 |
| CUUCAGCAAUAUUACGAGAA | – | -0.0336 ± 0.41 |
| CUUCAGCAAUAUUACGAGAG | -2.81 ± 0.12 | -1.79 ± 0.14 |
| CUUCAGCAAUAUUACGAGUA | -1.21 ± 0.4 | – |
| CUUCAGCAAUAUUACGCCGC | -3.14 ± 0.37 | -2.43 ± 0.35 |
| CUUCAGCAAUAUUACGCUUG | -2.94 ± 0.14 | -1.22 ± 0.12 |
| CUUCAGCAAUAUUACGCUUU | – | -2.85 ± 0.31 |
| CUUCAGCAAUAUUACGGGUA | -3.12 ± 0.22 | -3.74 ± 0.28 |
| CUUCAGCAAUAUUACGUAGG | -1.49 ± 0.1 | -0.863 ± 0.12 |
| CUUCAGCAAUAUUACGUGCG | -2.43 ± 0.09 | -0.814 ± 0.099 |
| CUUCAGCAAUAUUACGUUCC | -2.64 ± 0.43 | -1.71 ± 0.36 |
| CUUCAGCAAUAUUACGUUCG | -0.922 ± 0.067 | -0.372 ± 0.092 |
| CUUCAGCAAUAUUACGUUUA | -3.96 ± 0.3 | -2.49 ± 0.23 |
| CUUCAGCAAUAUUACGUUUC | -2.93 ± 0.17 | -2.17 ± 0.2 |
| CUUGAGCAAUAUUACGACAC | – | -3.08 ± 0.47 |
| CUUGAGCAAUAUUACGACUC | – | -1.67 ± 0.42 |
| CUUGAGCAAUAUUACGAGUU | -4.15 ± 0.23 | -2.33 ± 0.17 |
| CUUGAGCAAUAUUACGCCAU | -2.92 ± 0.22 | -3.8 ± 0.46 |
